Results published in patent US6096512A, “Cloned DNA encoding a UDP-GalNAc: Polypeptide, N-acetylgalactosaminyltransferase” (Pharmacia & Upjohn Company, priority 1997, dated 2000).

Experiments:
[1] = target: T1, bovine colostrum GalNAc-transferase (Bos taurus, UniProt Q07537); assay: Transfer of N-acetylgalactosamine to protein acceptors by bovine colostrum GalNAc-transferase; format: biochemical; details: acceptor 65 μM, enzyme approximately 65 mU/ml, 60 minutes
T1 sequence (Q07537 41-559): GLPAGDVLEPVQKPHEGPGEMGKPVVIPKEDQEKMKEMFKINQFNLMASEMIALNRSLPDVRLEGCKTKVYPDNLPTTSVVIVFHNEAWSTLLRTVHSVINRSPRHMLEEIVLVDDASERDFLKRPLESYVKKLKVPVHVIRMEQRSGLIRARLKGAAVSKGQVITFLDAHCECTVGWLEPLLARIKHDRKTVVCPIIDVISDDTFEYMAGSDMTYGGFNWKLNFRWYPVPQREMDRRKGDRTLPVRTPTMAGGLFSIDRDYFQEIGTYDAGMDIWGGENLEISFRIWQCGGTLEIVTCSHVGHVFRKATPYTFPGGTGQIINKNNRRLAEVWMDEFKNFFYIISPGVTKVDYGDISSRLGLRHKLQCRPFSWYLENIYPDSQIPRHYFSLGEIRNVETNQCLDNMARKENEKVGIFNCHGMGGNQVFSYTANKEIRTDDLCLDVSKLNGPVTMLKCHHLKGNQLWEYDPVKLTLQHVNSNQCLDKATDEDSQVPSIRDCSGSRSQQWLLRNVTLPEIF
Protocol: The standard assay for UDP-GalNAc:polypeptide, N-acetylgalactosaminyltransferase activity during purification contained the following components in a final volume of 80 μl: 50 mM Imidazole pH 7.2, 10 mM MnCl2, 0.5% Triton X-100, 15 μM UDP-GalNAc, UDP[1-^3 H-] GalNAc (27,000 cpm/assay), 0.15 mg/ml apomucin and varying amounts of enzyme (see individual experiments). The reaction mixture is incubated at 37° C. for 5-10 minutes (see individual experiments) and the reaction product is TCA precipitated and radioactivity measured as described. Assays for activity in lysates from Spodoptera frugiperda cell line 9 (hereinafter referred to as Sf9 cells) are carried out as described by Thomsen et al., (1990).
The above conclusions and the predictions of the specificity algorithm are validated experimentally by studying the ability of bovine colostrum GalNAc-transferase to transfer N-acetylgalactosamine to a variety of acceptors, both native proteins and synthetic acceptor peptides. The transfer of N-acetylgalactosamine to protein acceptors is assayed as described by Elhammer and Kornfeld, 1986, with minor modifications. The concentration of UDP-GalNAc is saturating in all assays; a Km of 8 μM is reported for bovine colostrum GalNAc-transferase (Elhammer and Kornfeld, 1986).
The transfer of N-acetylgalactosamine to protein acceptors was assayed
under standard conditions (see Material and Methods). The acceptor
concentration was 65 μM, the enzyme concentration approximately
65 mU/ml and assay time was 60 minutes. The transfer to both native and
reduced-carboxymethylated acceptors was assayed.

[2] = target: T1, bovine colostrum GalNAc-transferase; details: Cruz and Moscarello, 1983; cited from earlier work

Product formed, native acceptor ([1]; native): 22.2 nmol/min/mg
Product formed, reduced and carboxymethylated acceptor ([1]; myelin basic protein was not reduced and carboxymethylated): 21.3 nmol/min/mg
B1: Myelin basic protein: efficient acceptor for GalNAc-transferase, included as a positive control (protein, UniProt P02686 1-304, looked up)
Myelin basic protein: MGNHAGKRELNAEKASTNSETNRGESEKKRNLGELSRTTSEDNEVFGEADANQNNGTSSQDTAVTDSKRTADPKNAWQDAHPADPGSRPHLIRLFSRDAPGREDNTFKDRPSESDELQTIQEDSAATSESLDVMASQKRPSQRHGSKYLATASTMDHARHGFLPRHRDTGILDSIGRFFGGDRGAPKRGSGKDSHHPARTAHYGSLPQKSHGRTQDENPVVHFFKNIVTPRTPPPSQGKGRGLSLSRFSWGAEGQRPGFGYGGRASDYKSAHKGFKGVDAQGTLSKIFKLGGRDSRSGSPMARR
N-acetylgalactosamines per molecule [2]: 1.2 to 1.5 N-acetylgalactosamines per molecule
